Results on 1 molecule are retold here after patent publication US20220073599A1 (Hoffmann-La Roche, published 2022).

The target of experiment [1] is T1, ANG2 (human, UniProt O15123 19-496, limits assumed).
T1 sequence: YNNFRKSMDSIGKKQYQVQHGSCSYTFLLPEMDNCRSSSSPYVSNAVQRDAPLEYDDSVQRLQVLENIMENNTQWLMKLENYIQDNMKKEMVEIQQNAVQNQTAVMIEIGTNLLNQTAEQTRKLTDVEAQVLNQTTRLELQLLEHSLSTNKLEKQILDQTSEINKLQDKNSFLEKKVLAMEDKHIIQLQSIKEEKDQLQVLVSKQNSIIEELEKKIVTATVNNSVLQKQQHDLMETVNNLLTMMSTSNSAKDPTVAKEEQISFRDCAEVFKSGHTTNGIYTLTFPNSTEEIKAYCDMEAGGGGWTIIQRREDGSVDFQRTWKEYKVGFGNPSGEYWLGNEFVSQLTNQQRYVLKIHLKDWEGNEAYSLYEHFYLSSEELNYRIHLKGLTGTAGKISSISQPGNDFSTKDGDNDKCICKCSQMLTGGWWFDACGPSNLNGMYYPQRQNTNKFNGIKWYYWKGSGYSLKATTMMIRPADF
As to the kind of experiment: cell-based or functional assay.

Experiment [2] addresses T2, human Ang2-RBD-muFc (human, UniProt O15123 275-496, limits assumed).
T2 construct: also called Human ANG2 (KinExA); not shown: murine Fc (muFc)
T2 sequence: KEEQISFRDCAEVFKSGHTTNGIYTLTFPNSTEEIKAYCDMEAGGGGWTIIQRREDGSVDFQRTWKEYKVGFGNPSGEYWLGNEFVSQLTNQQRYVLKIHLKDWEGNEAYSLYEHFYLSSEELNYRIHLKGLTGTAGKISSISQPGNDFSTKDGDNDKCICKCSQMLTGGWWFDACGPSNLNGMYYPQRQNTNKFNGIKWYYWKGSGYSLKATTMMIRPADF
As to the kind of experiment: KinExA, human ANG2 (Ang2-RBD-muFc) by the table's title; the column's head prints VEGFA-121. As for the experimental part: All KinExA® experiments were performed at room temperature (RT) using PBS pH 7.4 with 0.01% BSA and 0.01% Tween® 20 (BioRad, #161-0781) as running buffer. […] A flow rate of 0.25 ml/min was used. A constant amount of Ang2-RBD-muFc (50 pM and in a second experiment 500 pM) was titrated with tested antibody by twofold serial dilution starting at 4 nM (concentration range 1.95 pM-4000 pM). Antigen-antibody complexes were incubated at RT for at least 8 h to allow equilibrium to be reached. Equilibrated mixtures were then drawn through a column of Anti-Ang2 antibody (MAB098) coupled beads in the KinExA® system at a volume of 750 μl for 50 pM constant Ang2 and at a volume of 188 μl for 500 pM constant Ang2 permitting unbound Ang2 to be captured by the beads without perturbing the equilibrium state of the solution. Bound Ang2 was detected using a second biotinylated anti-Ang2 antibody (BAM0981) with a concentration of 250 ng/ml and following by an injection of 250 ng/ml Streptavidin Alexa Fluor™ 647 conjugate in sample buffer. Each sample was measured in duplicates for all equilibrium experiments. The KD was obtained from non-linear regression analysis of the data using a one-site homogeneous binding model contained within the KinExA® software (Version 4.0.11) using the “standard analysis” method. […]

B1: Nesvacumab-analogue (antibody, human IgG1, kappa, L234A L235A, V domains shown)
VH: AVQLVASGGGLVQPGGSLRLSCAASGFTFSSYDIHWVRQATGKGLEWVSAIGPAGDTYYPGSVKGRFTISRENAKNSLYLQMNSLRAGDTAVYYCARGLITFGGLIAPFDYWGQGTLVTVSS
VL: IVLTQSPGTLSLSPGERATLSCRASQSVSSTYLAWYQQKPGQAPRLLIYGASSRATGIPDRFSGSGSGTDFTLTISRLEPEDFAVYYCQHYDNSQTFGQGTKVEIKR
notes: also called Nesvacumab (INN); Nesvacumab Mab
B1: in experiment [1], the “IC50, pTie2-Assay (Tie2 phosphorylation in Hek293 cells expressing Tie2, stimulated with Ang-2)” value came out at 6 nM. In experiment [2], binding was put at a Kd of 0.01 nM.

The Kd is the equilibrium constant for the complex coming apart. A higher Kd goes with a looser complex.
